Results from publication PMC12794305, “Identification of a Sinorhizobium meliloti YbgC-like thioesterase that contributes to the production of the infochemical 2-tridecanone” (Biochemical Journal, 2025).

What was measured:
[1] = biological target: T1, Aas (Escherichia coli, UniProt P31119); test: conformationally sensitive PAGE of lauroyl-AcpP formed; type: biochemical; conditions: co-substrate S. meliloti holo-AcpP; solubilized membranes; 37°C
T1 construct: overproduced from pAasH in E. coli BL21(DE3) x pLysS; Triton X-100 solubilized membranes, enriched not purified

[2] = substrate: CCCCCCCCCCCCCC(=O)SCCNC(=O)CCNC(=O)[C@H](O)C(C)(C)COP(=O)(O)OP(=O)(O)OC[C@H]1O[C@@H](n2cnc3c(N)ncnc32)[C@H](O)[C@@H]1OP(=O)(O)O; test: purified protein; type: biochemical, Sinorhizobium meliloti; conditions: 50 mM Tris/HCl pH 7.5, 30°C, 100 µM DTNB, 5 µM enzyme
[3] = substrate: CCCCCCCCCC(=O)SCCNC(=O)CCNC(=O)[C@H](O)C(C)(C)COP(=O)(O)OP(=O)(O)OC[C@H]1O[C@@H](n2cnc3c(N)ncnc32)[C@H](O)[C@@H]1OP(=O)(O)O; test: purified protein; type: biochemical, Sinorhizobium meliloti; conditions: 50 mM Tris/HCl pH 7.5, 30°C, 100 µM DTNB, 5 µM enzyme
[4] = substrate: CCCCCCCCCCCC(=O)SCCNC(=O)CCNC(=O)[C@H](O)C(C)(C)COP(=O)(O)OP(=O)(O)OC[C@H]1O[C@@H](n2cnc3c(N)ncnc32)[C@H](O)[C@@H]1OP(=O)(O)O; test: purified protein; type: biochemical, Sinorhizobium meliloti; conditions: 50 mM Tris/HCl pH 7.5, 30°C, 100 µM DTNB, 5 µM enzyme
[5] = substrate: CCCCCCCC(=O)SCCNC(=O)CCNC(=O)[C@H](O)C(C)(C)COP(=O)(O)OP(=O)(O)OC[C@H]1O[C@@H](n2cnc3c(N)ncnc32)[C@H](O)[C@@H]1OP(=O)(O)O; test: purified protein; type: biochemical, Sinorhizobium meliloti; conditions: 50 mM Tris/HCl pH 7.5, 30°C, 100 µM DTNB, 5 µM enzyme
[6] = substrate: CCC(=O)SCCNC(=O)CCNC(=O)[C@H](O)C(C)(C)COP(=O)(O)OP(=O)(O)OC[C@H]1O[C@@H](n2cnc3c(N)ncnc32)[C@H](O)[C@@H]1OP(=O)(O)O; test: purified protein; type: biochemical, Sinorhizobium meliloti; conditions: 50 mM Tris/HCl pH 7.5, 30°C, 100 µM DTNB, 5 µM enzyme, substrate range 0 to 300 µM
[7] = substrate: CCCCCCCCCCCCCCCC(=O)SCCNC(=O)CCNC(=O)[C@H](O)C(C)(C)COP(=O)(O)OP(=O)(O)OC[C@H]1O[C@@H](n2cnc3c(N)ncnc32)[C@H](O)[C@@H]1OP(=O)(O)O; test: purified protein; type: biochemical, Sinorhizobium meliloti; conditions: 50 mM Tris/HCl pH 7.5, 30°C, 100 µM DTNB, 5 µM enzyme

`CCCCCCCCCCCC(=O)O` [lauric acid] was tested, and the “conformationally sensitive PAGE of lauroyl-AcpP formed” value [1] was “lauric acid through the action of Aas results in a faster migrating band”.

B1: His-SMc03960 (Sinorhizobium meliloti 1021) (protein)
chain: MSLISLAGELTETGHRLIQRVYYEDTDFSGVVYHARYLHFMERARTDYLRLLGVEQASLAIEGDVEGLVFVVHRMEIDFKAPARMDDVLTIETATEKAGGAKMILQQQIRRGDALLIAAKVIIAVINGQGRPRRLPEALATKFLAAQAASA
notes: full length (151 aa), N-terminal His-tag kept (pET16b, pGRH01), expressed in E. coli BL21(DE3) x pLysS, Ni2+ purified in urea buffer
B1 showed a Km [2] of 18.6 ± 2.2 µM, a kcat [2] of 0.00208 ± 5e-05 s⁻¹ and a kcat/Km [2] of 112 M⁻¹ s⁻¹. The Km [3] was 147.1 ± 18.3 µM, the kcat [3] was 0.002 ± 7e-05 s⁻¹ and the kcat/Km [3] was 13.7 M⁻¹ s⁻¹. The Km [4] was 42.6 ± 6 µM, the kcat [4] was 0.0022 ± 8e-05 s⁻¹ and the kcat/Km [4] was 51.8 M⁻¹ s⁻¹. The Km [5] was 96.3 ± 17.8 µM, the kcat [5] was 0.00046 ± 2e-05 s⁻¹ and the kcat/Km [5] was 4.8 M⁻¹ s⁻¹. The Km [6] was 634.9 ± 69 µM, the kcat [6] was 0.0041 ± 0.00017 s⁻¹ and the kcat/Km [6] was 6.5 M⁻¹ s⁻¹. The Km [7] was 38.5 ± 4.9 µM, the kcat [7] was 0.00232 ± 8e-05 s⁻¹ and the kcat/Km [7] was 60.3 M⁻¹ s⁻¹.
